Laboratory results published in patent US20120034160A1 (AbbVie / Abbott, published 2012).

T1: Recombinant Human IL-17 (human, UniProt Q16552 20-155, limits assumed)
T1 construct: bought reagent
T1 sequence (looked up): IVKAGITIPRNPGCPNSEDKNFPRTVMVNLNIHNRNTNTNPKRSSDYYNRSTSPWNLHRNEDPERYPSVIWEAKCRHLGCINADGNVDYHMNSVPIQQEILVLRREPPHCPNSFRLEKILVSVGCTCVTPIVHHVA


What was measured:
Recombinant Human IL-1β [1] = target: T2, Recombinant Human IL-1β (human, UniProt P01584 117-269); assay: Biacore SPR; C-terminal VD
T2 construct: bought reagent; also called IL-1B
Procedure, shortened: (§1)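 SPR, 25° C, HBS-EP (10 mM HEPES pH 7.4, 150 mM NaCl, 3 mM EDTA, 0.005% P20). Capture via anti-mouse IgG Fcγ chip; analyte 10−200 nM at 25 μl/min. 1:1 Langmuir global fit; KD = koff/kon.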

Recombinant Human IL-17 = target: T1, Recombinant Human IL-17; assay: Biacore SPR; N-terminal VD
Procedure, shortened: as §1

Recombinant Human IL-1β [2] = target: T2, Recombinant Human IL-1β; assay: Biacore SPR; N-terminal VD
Procedure, shortened: as §1

Kd (Recombinant Human IL-1β [1]) | koff (Recombinant Human IL-1β [1]) | kon (Recombinant Human IL-1β [1]) | Kd (Recombinant Human IL-17) | koff (Recombinant Human IL-17) | kon (Recombinant Human IL-17) | Kd (Recombinant Human IL-1β [2]) | koff (Recombinant Human IL-1β [2]) | kon (Recombinant Human IL-1β [2]) | Binder
1 nM | 0.00049 s⁻¹ | 490000 M⁻¹ s⁻¹ | 0.0055 nM | 2.2e-05 s⁻¹ | 4e+06 M⁻¹ s⁻¹ |  |  |  | DVD1628 (bispecific antibody, human IgG1, kappa, DVD-Ig, outer AB273, inner AB272, linker set 3; V1 wt hIgG1, V2 kappa; also called DVD1628H; DVD1628L) heavy: not shown light: DIQMTQSPSSLSASVGDRVTITCRASSGIISYIDWFQQKPGKAPKRLIYATFDLASGVPSRFSGSGSGTDYTLTISSLQPEDFATYYCRQVGSYPETFGQGTKLEIKRTVAAPETTVTQSPSSLSASVGDRVTITCITSTDIDVDMNWYQQKPGKPPKLLISQGNTLRPGVPSRFSSSGSGTDFTFTISSLQPEDFATYYCLQSDNLPLTFGQGTKLEIKRTVAAPSVFIFPPSDEQLKSGTASVVCLLNNFYPREAKVQWKVDNALQSGNSQESVTEQDSKDSTYSLSSTLTLSKADYEKHKVYACEVTHQGLSSPVTKSFNRGEC
 |  |  |  |  |  | 0.069 nM | 0.00047 s⁻¹ | 6.9e+06 M⁻¹ s⁻¹ | DVD1278 (bispecific antibody, human IgG1, kappa, DVD-Ig, outer AB271, inner AB274, linker set 1; V1 wt hIgG1, V2 kappa; also called DVD1278H; DVD1278L) heavy: not shown light: DTVVTQSPAFLSVTPGEKVTITCITSTDIDVDMNWYQQKPDQPPKLLISQGNTLRPGVPSRFSSSGSGTDFTFTISSLEAEDAATYYCLQSDNLPLTFGQGTKLEIKRTVAAPEIVLTQSPDFQSVTPKEKVTITCRASQDIGSELHWYQQKPDQPPKLLIKYASHSTSGVPSRFSGSGSGTDFTLTINGLEAEDAGTYYCHQTDSLPYTFGPGTKVDIKRTVAAPSVFIFPPSDEQLKSGTASVVCLLNNFYPREAKVQWKVDNALQSGNSQESVTEQDSKDSTYSLSSTLTLSKADYEKHKVYACEVTHQGLSSPVTKSFNRGEC
 |  |  |  |  |  | 0.076 nM | 0.00046 s⁻¹ | 6.1e+06 M⁻¹ s⁻¹ | DVD1288 (bispecific antibody, human IgG1, kappa, DVD-Ig, outer AB271, inner AB275, linker set 1; V1 wt hIgG1, V2 kappa; also called DVD1288H; DVD1288L) heavy: not shown light: DTVVTQSPAFLSVTPGEKVTITCITSTDIDVDMNWYQQKPDQPPKLLISQGNTLRPGVPSRFSSSGSGTDFTFTISSLEAEDAATYYCLQSDNLPLTFGQGTKLEIKRTVAAPEIVLTQSPDFQSVTPKEKVTITCRASQNIGSELHWYQQKPDQSPKLLIKYASHSISGVPSRFSGSGSGTDFTLTINGLEAEDAATYYCHQSDTLPHTFGQGTKVDIKRTVAAPSVFIFPPSDEQLKSGTASVVCLLNNFYPREAKVQWKVDNALQSGNSQESVTEQDSKDSTYSLSSTLTLSKADYEKHKVYACEVTHQGLSSPVTKSFNRGEC
0.42 nM | 4.7e-05 s⁻¹ | 110000 M⁻¹ s⁻¹ | 0.005 nM | 1.6e-05 s⁻¹ | 3.2e+06 M⁻¹ s⁻¹ |  |  |  | DVD1632 (bispecific antibody, human IgG1, kappa, V1 wt hIgG1, V2 kappa; also called DVD1632H; DVD1632L) heavy: not shown light: EIVLTQSPDFQSVTPKEKVTITCRASQDIGSELHWYQQKPDQPPKLLIKYASHSTSGVPSRFSGSGSGTDFTLTINGLEAEDAGTYYCHQTDSLPYTFGPGTKVDIKRTVAAPDIQMTQSPSSLSASVGDRVTITCRASGNIHNYLTWYQQTPGKAPKLLIYNAKTLADGVPSRFSGSGSGTDYTFTISSLQPEDIATYYCQHFWSIPYTFGQGTKLQITRTVAAPSVFIFPPSDEQLKSGTASVVCLLNNFYPREAKVQWKVDNALQSGNSQESVTEQDSKDSTYSLSSTLTLSKADYEKHKVYACEVTHQGLSSPVTKSFNRGEC

Continued, binder first:

Binder | Kd (Recombinant Human IL-1β [1]) | koff (Recombinant Human IL-1β [1]) | kon (Recombinant Human IL-1β [1]) | Kd (Recombinant Human IL-17) | koff (Recombinant Human IL-17) | kon (Recombinant Human IL-17) | Kd (Recombinant Human IL-1β [2]) | koff (Recombinant Human IL-1β [2]) | kon (Recombinant Human IL-1β [2])
DVD1630 (bispecific antibody, human IgG1, kappa, V1 wt hIgG1, V2 kappa; also called DVD1630H; DVD1630L) heavy: not shown light: EIVLTQSPDFQSVTPKEKVTITCRASQDIGSELHWYQQKPDQPPKLLIKYASHSTSGVPSRFSGSGSGTDFTLTINGLEAEDAGTYYCHQTDSLPYTFGPGTKVDIKRTVAAPDIQMTQSPSSLSASVGDRVTITCRASGNIHNYLTWYQQTPGKAPKLLIYNAKTLADGVPSRFSGSGSGTDYTFTISSLQPEDIATYYCQHFWSIPYTFGQGTKLQITRTVAAPSVFIFPPSDEQLKSGTASVVCLLNNFYPREAKVQWKVDNALQSGNSQESVTEQDSKDSTYSLSSTLTLSKADYEKHKVYACEVTHQGLSSPVTKSFNRGEC | 0.45 nM | 7.6e-05 s⁻¹ | 170000 M⁻¹ s⁻¹ | 0.0045 nM | 1.6e-05 s⁻¹ | 3.4e+06 M⁻¹ s⁻¹ |  |  | 
DVD1266 (bispecific antibody, human IgG1, kappa, DVD-Ig, outer AB270, inner AB273, linker set 1; V1 wt hIgG1, V2 kappa; also called DVD1266H; DVD1266L) heavy: not shown light: DTQVTQSPSSLSASVGDRVTITCITSTDIDVDMNWYQQKPGKPPKLLISQGNTLRPGVPSRFSSSGSGTDFTFTISSLQPEDFATYYCLQSDNLPLTFGQGTKLEIKRTVAAPDIQMTQSPSSLSASVGDRVTITCRASSGIISYIDWFQQKPGKAPKRLIYATFDLASGVPSRFSGSGSGTDYTLTISSLQPEDFATYYCRQVGSYPETFGQGTKLEIKRTVAAPSVFIFPPSDEQLKSGTASVVCLLNNFYPREAKVQWKVDNALQSGNSQESVTEQDSKDSTYSLSSTLTLSKADYEKHKVYACEVTHQGLSSPVTKSFNRGEC |  |  |  |  |  |  | 0.077 nM | 0.00046 s⁻¹ | 6e+06 M⁻¹ s⁻¹
DVD1270 (bispecific antibody, human IgG1, kappa, DVD-Ig, outer AB272, inner AB273, linker set 1; V1 wt hIgG1, V2 kappa; also called DVD1270H; DVD1270L) heavy: not shown light: ETTVTQSPSSLSASVGDRVTITCITSTDIDVDMNWYQQKPGKPPKLLISQGNTLRPGVPSRFSSSGSGTDFTFTISSLQPEDFATYYCLQSDNLPLTFGQGTKLEIKRTVAAPDIQMTQSPSSLSASVGDRVTITCRASSGIISYIDWFQQKPGKAPKRLIYATFDLASGVPSRFSGSGSGTDYTLTISSLQPEDFATYYCRQVGSYPETFGQGTKLEIKRTVAAPSVFIFPPSDEQLKSGTASVVCLLNNFYPREAKVQWKVDNALQSGNSQESVTEQDSKDSTYSLSSTLTLSKADYEKHKVYACEVTHQGLSSPVTKSFNRGEC |  |  |  |  |  |  | 0.1 nM | 0.00054 s⁻¹ | 5.3e+06 M⁻¹ s⁻¹
